# Tests used:
# [1] = molecular target: NaKΔ18 S-ELM (Bacillus cereus) (UniProt Q81HW2); assay: crystal structure
# crystal structure = molecular target: the molecule itself; assay: crystal structure
Molecule,stoichiometry N [1],stoichiometry N (crystal structure)
NaKΔ18 S-ELM (from UniProt Q81HW2 19-114) (domain or fragment),4,
"NaKΔ18 C-DI (domain or fragment, Bacillus cereus, UniProt Q81HW2 19-114, looked up) WKDKEFQVLFVLTILTLISGTIFYSTVEGLRPIDALYFSVVTLTTVGCDISPQTDFGKIFTILYIFIGIGLVFGFIHKLAVNVQLPSILSNRKKE",,4
"NaKΔ18 C-DI F92A (domain or fragment, Bacillus cereus, UniProt Q81HW2 19-114, looked up) WKDKEFQVLFVLTILTLISGTIFYSTVEGLRPIDALYFSVVTLTTVGCDISPQTDFGKIFTILYIFIGIGLVAGFIHKLAVNVQLPSILSNRKKE",,4
"NaKΔ18 S-DI (domain or fragment, Bacillus cereus, UniProt Q81HW2 19-114, looked up) WKDKEFQVLFVLTILTLISGTIFYSTVEGLRPIDALYFSVVTLTTVGSDISPQTDFGKIFTILYIFIGIGLVFGFIHKLAVNVQLPSILSNRKKE",,4

# Source: article doi:10.1101/2022.08.08.502946 (bioRxiv, 2022)
